These results are taken from US20230113563A1 (SYSTIMMUNE, published 2023).

The term Kd denotes the concentration at which binding is half-saturated. Read a low Kd as a tighter complex.

Sequences and labels used below:
B1: human MICA (Acro, MIA-H5221) (ligand, UniProt Q29983 24-307, looked up)
chain: EPHSLRYNLTVLSWDGSVQSGFLTEVHLDGQPFLRCDRQKCRAKPQGQWAEDVLGNKTWDRETRDLTGNGKDLRMTLAHIKDQKEGLHSLQEIRVCEIHEDNSTRSSQHFYYDGELFLSQNLETKEWTMPQSSRAQTLAMNVRNFLKEDAMKTKTHYHAMHADCLQELRRYLKSGVVLRRTVPPMVNVTRSEASEGNITVTCRASGFYPWNITLSWRQDGVSLSHDTQQWGDVLPDGNGTYQTWVATRICQGEEQRFTCYMEHSGNHSTHPVPSGKVLVLQSHW
notes: Bought reagent used as analyte in solution; also called NKG2D ligand MICA
B2: SI-49R23 (Fc fusion)
chain: FLNSLFNQEVQIPLTESYCGPCPKNWICYKNNCYQFFDESKNWYESQASCMSQNASLLKVYSKEDQDLLKLVKSYHWMGLVHIPTNGSWQWEDGSILSPNLLTIIEMQKGDCALYASSFKGYIENCSTPNTYICMQRTVASEPKSSDKTHTCPPCPAPEAAGGPSVFLFPPKPKDTLMISRTPEVTCVVVDVSHEDPEVKFNWYVDGVEVHNAKTKPREEQYASTYRVVSVLTVLHQDWLNGKEYKCAVSNKALPAPIEKTISKAKGQPREPQVYTLPPSRDELTKNQVSLTCLVKGFYPSDIAVEWESNGQPENNYKTTPPVLDSDGSFFLYSKLTVDKSRWQQGNVFSCSVMHEALHNHYTQKSLSLSPGK
notes: Monospecific protein with NKG2D directly fused to the antibody Fc domain; Two copies are inferred from the Fc dimer
B3: SI-49R19 (bispecific antibody)
heavy: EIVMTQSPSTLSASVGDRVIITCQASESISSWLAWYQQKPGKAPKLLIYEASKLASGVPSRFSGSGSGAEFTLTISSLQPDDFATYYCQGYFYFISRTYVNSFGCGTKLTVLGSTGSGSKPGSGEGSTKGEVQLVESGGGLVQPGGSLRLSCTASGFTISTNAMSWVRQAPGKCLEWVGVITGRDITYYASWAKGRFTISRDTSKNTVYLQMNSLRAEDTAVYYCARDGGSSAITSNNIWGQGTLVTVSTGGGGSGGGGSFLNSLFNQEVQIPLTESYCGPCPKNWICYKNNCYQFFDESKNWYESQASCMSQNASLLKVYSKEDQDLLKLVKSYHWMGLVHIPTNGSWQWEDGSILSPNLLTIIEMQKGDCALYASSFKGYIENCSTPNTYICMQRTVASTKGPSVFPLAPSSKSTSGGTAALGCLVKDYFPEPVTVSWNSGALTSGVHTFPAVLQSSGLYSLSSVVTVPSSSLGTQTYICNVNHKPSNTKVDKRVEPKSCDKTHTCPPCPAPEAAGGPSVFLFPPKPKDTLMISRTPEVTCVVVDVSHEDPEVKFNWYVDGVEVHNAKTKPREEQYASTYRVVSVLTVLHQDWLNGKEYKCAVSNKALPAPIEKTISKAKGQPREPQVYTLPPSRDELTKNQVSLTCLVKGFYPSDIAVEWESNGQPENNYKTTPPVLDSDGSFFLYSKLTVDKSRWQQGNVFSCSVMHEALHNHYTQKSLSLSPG
light: FLNSLFNQEVQIPLTESYCGPCPKNWICYKNNCYQFFDESKNWYESQASCMSQNASLLKVYSKEDQDLLKLVKSYHWMGLVHIPTNGSWQWEDGSILSPNLLTIIEMQKGDCALYASSFKGYIENCSTPNTYICMQRTVRTVAAPSVFIFPPSDEQLKSGTASVVCLLNNFYPREAKVQWKVDNALQSGNSQESVTEQDSKDSTYSLSSTLTLSKADYEKHKVYACEVTHQGLSSPVTKSFNRGEC
notes: Bispecific GNC: anti-CD3 scFv (αCD3-alt) at D1 and NKG2D at D2

One assay has as its target T1, SI-49P7.
T1 construct: Penta-specific GNC: same structure as SI-49P6, but with 4-1BB ligand trimer at D4 instead of the anti-4-1BB scFv
The experiment in a line: BLI (Octet); GNC protein loaded on AHC sensors at 5 ug/ml; human MICA as analyte, 1:2 serial dilutions from 100 nM; global fit, 1:1 model. The procedure: (§1) To validate functionality of the NKG2D receptor in the D2 position, Octet binding was performed. GNC protein was loaded onto AHC sensors at 5 ug/ml, and subsequently bound to 1:2 serial dilutions (top concentration 100 nM) of human MICA (Acro, MIA-H5221).
For orientation: Biolayer interferometry detects binding as a change in optical thickness at a sensor tip.

Assay [1] deals with B1. The description is as above. How it is done:
as §1

T1 sequence (heavy, as listed by the source): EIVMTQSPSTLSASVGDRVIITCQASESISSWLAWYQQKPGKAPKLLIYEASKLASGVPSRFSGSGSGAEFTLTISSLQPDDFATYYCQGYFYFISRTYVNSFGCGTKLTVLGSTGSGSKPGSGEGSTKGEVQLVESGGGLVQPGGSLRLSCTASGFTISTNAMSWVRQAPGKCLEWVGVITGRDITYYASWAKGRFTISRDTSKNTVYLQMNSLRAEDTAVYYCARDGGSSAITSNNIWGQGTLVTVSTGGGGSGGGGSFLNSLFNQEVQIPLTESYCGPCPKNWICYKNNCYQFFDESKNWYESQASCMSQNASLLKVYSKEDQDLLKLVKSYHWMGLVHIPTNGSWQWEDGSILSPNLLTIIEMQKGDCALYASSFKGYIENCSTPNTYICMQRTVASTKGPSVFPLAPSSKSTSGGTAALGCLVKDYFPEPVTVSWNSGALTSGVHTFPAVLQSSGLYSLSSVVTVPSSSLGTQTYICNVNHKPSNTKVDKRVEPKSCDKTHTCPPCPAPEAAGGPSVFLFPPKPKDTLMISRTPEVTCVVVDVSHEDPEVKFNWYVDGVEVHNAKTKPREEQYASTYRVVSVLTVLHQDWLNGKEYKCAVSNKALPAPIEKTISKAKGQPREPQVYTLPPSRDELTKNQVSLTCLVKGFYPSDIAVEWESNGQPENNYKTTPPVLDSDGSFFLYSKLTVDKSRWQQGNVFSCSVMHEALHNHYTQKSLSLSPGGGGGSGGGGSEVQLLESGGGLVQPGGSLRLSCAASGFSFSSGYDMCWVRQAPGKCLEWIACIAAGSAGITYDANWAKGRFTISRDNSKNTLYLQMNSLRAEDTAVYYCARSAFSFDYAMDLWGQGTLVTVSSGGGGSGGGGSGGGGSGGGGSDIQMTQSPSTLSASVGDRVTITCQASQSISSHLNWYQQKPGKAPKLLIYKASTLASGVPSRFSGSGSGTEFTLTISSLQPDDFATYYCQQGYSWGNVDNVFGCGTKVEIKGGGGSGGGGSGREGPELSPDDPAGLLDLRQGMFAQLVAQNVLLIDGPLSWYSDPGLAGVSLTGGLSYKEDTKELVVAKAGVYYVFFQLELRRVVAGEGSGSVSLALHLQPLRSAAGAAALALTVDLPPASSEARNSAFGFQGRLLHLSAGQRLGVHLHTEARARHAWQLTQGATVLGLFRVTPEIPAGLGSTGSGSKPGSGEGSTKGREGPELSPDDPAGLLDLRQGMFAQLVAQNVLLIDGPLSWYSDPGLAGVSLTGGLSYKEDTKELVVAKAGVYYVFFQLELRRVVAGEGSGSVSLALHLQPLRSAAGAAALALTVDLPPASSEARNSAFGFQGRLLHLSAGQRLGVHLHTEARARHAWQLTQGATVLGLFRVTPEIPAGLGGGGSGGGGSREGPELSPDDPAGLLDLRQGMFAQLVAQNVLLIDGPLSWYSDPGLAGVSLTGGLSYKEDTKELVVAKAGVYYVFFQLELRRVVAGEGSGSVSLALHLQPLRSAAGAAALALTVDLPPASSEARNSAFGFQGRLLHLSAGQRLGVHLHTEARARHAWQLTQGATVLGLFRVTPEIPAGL

In the assay with SI-49P7, B1 had an equilibrium dissociation constant (Kd) of 11.2 nM. B2 had a Kd in assay [1] of 14.9 nM. Regarding B3, in assay [1], binding was characterised by a dissociation constant (Kd) of 3.93 nM. Compared with the last molecule, the Kd is about 3.8-fold lower.
